Results as given in publication PMC10178846, “CERT1 mutations perturb human development by disrupting sphingolipid homeostasis” (The Journal of Clinical Investigation, 2023).
Values joined by “and” are separate entries in the source; they are usually repeats but may differ in a detail not shown here. Equal entries are not always repeated.

B1: CERT central core domain (CCD), purified recombinant CERT 151-309 WT (domain or fragment, human, UniProt Q9Y5P4-1 151-309, looked up)
chain: FKKGHSLREKLAEMETFRDILCRQVDTLQKYFDACADAVSKDELQRDKVVEDDEDDFPTTRSDGDFLHSTNGNKEKLFPHVTPKGINGIDFKGEAITFKATTAGILATLSHCIELMVKREDSWQKRLDKETEKKRRTEEAYKNAMTELKKKSHFGGPDY
notes: human CERT (CERT1 isoform 1, CERTL), residues 151-309, central core domain; Theoretical MW is printed as 18.5 kDa; also called CERT CCD; source: recombinant, purified
B2: ceramide transporter CERT, recombinant full-length (CERT1 isoform 1, CERTL) (natural protein, human, UniProt Q9Y5P4-1 1-624, looked up)
chain: MSDNQSWNSSGSEEDPETESGPPVERCGVLSKWTNYIHGWQDRWVVLKNNALSYYKSEDETEYGCRGSICLSKAVITPHDFDECRFDISVNDSVWYLRAQDPDHRQQWIDAIEQHKTESGYGSESSLRRHGSMVSLVSGASGYSATSTSSFKKGHSLREKLAEMETFRDILCRQVDTLQKYFDACADAVSKDELQRDKVVEDDEDDFPTTRSDGDFLHSTNGNKEKLFPHVTPKGINGIDFKGEAITFKATTAGILATLSHCIELMVKREDSWQKRLDKETEKKRRTEEAYKNAMTELKKKSHFGGPDYEEGPNSLINEEEFFDAVEAALDRQDKIEEQSQSEKVRLHWPTSLPSGDAFSSVGTHRFVQKPYSRSSSMSSIDLVSASDDVHRFSSQVEEMVQNHMTYSLQDVGGDANWQLVVEEGEMKVYRREVEENGIVLDPLKATHAVKGVTGHEVCNYFWNVDVRNDWETTIENFHVVETLADNAIIIYQTHKRVWPASQRDVLYLSVIRKIPALTENDPETWIVCNFSVDHDSAPLNNRCVRAKINVAMICQTLVSPPEGNQEISRDNILCKITYVANVNPGGWAPASVLRAVAKREYPKFLKRFTSYVQEKTAGKPILF
notes: human ceramide transporter CERT (CERT1), isoform 1 (CERTL), NP_005704; full-length recombinant protein; also called CERT WT; source: recombinant
B3: CERT construct encompassing the PH plus CCD domains (aa 1-341) (domain or fragment, human, UniProt Q9Y5P4-1 1-341, looked up)
chain: MSDNQSWNSSGSEEDPETESGPPVERCGVLSKWTNYIHGWQDRWVVLKNNALSYYKSEDETEYGCRGSICLSKAVITPHDFDECRFDISVNDSVWYLRAQDPDHRQQWIDAIEQHKTESGYGSESSLRRHGSMVSLVSGASGYSATSTSSFKKGHSLREKLAEMETFRDILCRQVDTLQKYFDACADAVSKDELQRDKVVEDDEDDFPTTRSDGDFLHSTNGNKEKLFPHVTPKGINGIDFKGEAITFKATTAGILATLSHCIELMVKREDSWQKRLDKETEKKRRTEEAYKNAMTELKKKSHFGGPDYEEGPNSLINEEEFFDAVEAALDRQDKIEEQSQ
notes: human CERT (CERT1 isoform 1, CERTL), residues 1-341, PH plus CCD domains

How the values were obtained:
[1] = target: the molecule itself; assay: native MS; native MS of purified recombinant CERT 151-309 WT; deconvoluted mass spectrum
[2] = target: the molecule itself; assay: SEC-MALS; size-exclusion chromatography coupled to multiangle light scattering of recombinant CERT constructs; absolute molar mass

Protein	stoichiometry N [1]	stoichiometry N [2]
B1	2 and 4	–
B2	–	2
B3	–	2
